# Data reported in PMC3775653 (Journal of the American Chemical Society, 2013).
# B1: AmpDh2 (zinc protease of Pseudomonas aeruginosa), recombinant, without the 17-amino-acid N-terminal membrane anchor (enzyme)
# chain: SSGPRLNTDYTSANQDSRVQFIVLHYTSTDLPHSLGILTHGGVSAHYLIGDDEPATVYRLVDENRRAWHAGVSEWQGRTWLNATSIGIEIVNQGYRDTPQGRVWYPFSEAQIQALIPLLKDIAKRHGITPDRIIGHSDIAPGRKVDPGPLFPWKRLADAGLVPWPKPGELARRLAELNGQLPDVRWFQQQLARHGYLVPQTGELEKDTRDVIGAFQMKYRPARFDGEPDLETAALLLAVPTS
# Biological target: the molecule itself
# Assay: AUC
protein,measurement,value
B1,stoichiometry N,2
